Laboratory results reported in patent publication US20250049914A1, “STEROID ACID-PEPTIDE BASED INTRACELLULAR CARGO DELIVERY” (DEFENCE THERAPEUTICS INC., priority 2021, published 2025).
“Also recorded” adds a separate entry of the source. Where a SMILES comes first, the peptide text is derived from it. The star is where a group is joined. Cholyl = C[C@H](CCC(=O)*)[C@H]1CC[C@H]2[C@@H]3[C@H](O)C[C@@H]4C[C@H](O)CC[C@]4(C)[C@H]3C[C@H](O)[C@]12C

Key:
[1] = system: EL4 cells; assay: Cytochrome C cytosolic delivery, cell death (annexin V binding) by flow cytometry; format: cell-based
Protocol: Cytochrome C is a protein that is normally entrapped in the mitochondria but its release into the cytosol in known to induce cell death. An experiment was performed in which EL4 cells were incubated with recombinant cytochrome C either alone (FIG. 8A) or mixed with CA-SV40 NLS (47 μM) (FIG. 8B). Successful delivery of cytochrome C to the cytosol in its active form was assessed by measuring cell death (annexin V binding) via flow cytometry.

[2] = system: DC2.4 cells; assay: eGFP-Gal3 assessment of damaged endosomes by microscopy; format: cell-based, murine; details: 0.1 mg/mL cargo, 3 h, 37° C.
Protocol: For this assay, 15×10^3 DC2.4 cells were seeded on a sterile cover slide in a 24-well plate. Two days following transfection of DC2.4 cells with the eGFP-hGal3 mammalian expression vector, 0.1 mg/mL of cargo was added to cells then incubated for 3 h at 37° C. The cells were then washed twice to remove excess protein prior to being mounted on a slide. The slides were viewed by fluorescent microscopy (Nikon, Eclipse™ Ti2-U) and the results analyzed using the ImageJ™ software.
A GFP-galectin-3 (GFP-Gal3) based detection system was utilized to explore the effect on endosomal membranes following intracellular delivery of steroid acid-peptide-conjugated cargoes. […] When expressed under normal conditions, Gal3 is evenly distributed across the cytosol but disruption of endosomal membranes allows Gal3 to access and bind luminal glycoproteins. We thus transiently transfected the murine dendritic cell line DC2.4 with a construct expressing Gal3 fused to enhanced green fluorescent protein (eGFP-Gal3). Two days later, DC2.4 cells were incubated with 0.1 mg/mL of either unconjugated OVA cargo or [CA-SV40]-OVA conjugated cargo for 3 h at 37° C. and the cells were observed by fluorescent microscopy.

[3] = Intrinsic tryptophan fluorescence (ITF) after thermal stress; format: physicochemical; details: 80° C., ten minutes, 0.8 mg/mL in PBS
Protocol: An Applied Photophysics (Leatherhead, Surrey, UK) Chirascan™ Q100 circular dichroism (CD) spectrometer was used for intrinsic tryptophan fluorescence (ITF) analysis and a VWR digital heatblock (Radnor, PA) was used for dry block temperature incubations. The Chirascan™ Q100 autosampler rack cooling system was used for all 4° C. incubations. Data was analyzed using MATLAB™ software (Natick, MA). Briefly, samples were removed from storage at −20° C. and allowed to equilibrate to room temperature. Samples were then diluted to 0.8 mg/mL in PBS from stock concentrations in the range of 4 to 5 mg/mL. Diluted samples were then analyzed for ITF without exposure to thermal stress (Native) or after ten minutes of thermal stress by dry block incubation. An aliquot of each diluted sample was incubated at 4° C., a second aliquot was incubated at 37° C., while a third aliquot was incubated at 80° C. BSA, diluted to 0.8 mg/mL, was included with the samples under each of the thermal conditions described above. All samples were re-equilibrated to room temperature after incubation. ITF Analysis was performed in […] by excitation at 280 nm with an emission scan range of 200-600 nm with a bandwidth of 1.0 nm, a Time-per point of 1 s, and a Step of 0.5. The triplicate spectra were blank subtracted, averaged, and converted from units of mdeg to relative fluorescence intensity using MATLAB software. […]

[4] = system: WT MSCs; assay: Antigen cross-presentation assay on wild-type MSCs with B3Z cells; format: cell-based, mouse; details: WT MSCs pulsed with OVA with or without conjugate
Protocol: In order to generate Bone marrow (BM)-derived mouse MSCs, the femurs of 6-8-week-old female Balb/c or C57BL/6 mice were isolated and flushed with Alpha Modification of Eagle's Medium (AMEM) supplemented with 10% FBS and 50 U/mL Penicillin-Streptomycin in a 10 cm cell culture dish, then incubated at 37° C. Two days later, non-adherent cells were removed and the media replaced every 3 to 4 days until plastic-adherent cells reached 80% confluency. The generated cells were detached using 0.05% trypsin and expanded until a uniform MSC population was obtained. The generated MSCs were validated for their innate phenotype by flow-cytometry for the expression of CD44, CD45, CD73, and CD90. The cells were frozen in liquid nitrogen until use.
To assess cross-presentation assay, 25×10^3 cells MSCs were seeded per well in 24-well plate then pulsed with steroid acid peptide-conjugated for 6 h admixed with OVA. At the end of the pulsing period, the cells were washed to remove excess antigen then 5×10^4 B3Z cells. The cells were incubated for 17-19 hours prior to their lysis and incubation for another 4-6 hours at 37° C. with a CPRG solution. The optical density signal was detected at wavelength 570 using a SynergyH1™ microplate reader (Biotek, Winooski, VT, United States).
To determine whether a similar effect occurs in wild type (WT) (i.e., non-engineered) MSCs, BM-derived MSCs (Example 1) were used instead in the same cross presentation assay with B3Z responder cells.

[5] = system: primary bone marrow-derived DCs; assay: DQ OVA intracellular degradation/processing, flow cytometry; format: cell-based, mouse; details: primary BMDCs, six hours
Protocol: Mouse bone marrow derived DCs (BMDCs) were generated by flushing the whole marrow from mouse femurs using RPMI™ 1640 supplemented with 10% fetal bovine serum (FBS), 50 U/mL Penicillin-Streptomycin, 2 mM L-glutamine, 10 mM HEPES, 1% MEM Non-essential Amino Acids, 1 mM Sodium Pyruvate, 0.5 mM beta-mercaptoethanol. Following red blood cell lysis, cells were then cultured in media supplemented with 50 ng/mL murine recombinant GM-CSF. The media was changed on days 2, 4, 6 and 8. On day 9, the media was replaced to include recombinant murine GM-CSF and LPS from Escherichia coli 0111 (1 ng/mL) to stimulate DC maturation. Mature DCs were assessed by flow cytometry for their surface expression of CD3, CD19, NK1.1, CD11c, CD80, CD86, and I-A^b. To evaluate OVA degradation/processing, cells were incubated with 10 µg/mL DQ™ OVA (with or without steroid acid-peptide modification) at 37° C. 30 minutes later, cells were washed, and regular media was added. […] Fluorescence was monitored by analyzing the cells by flow cytometry. […] Briefly, while a strong fluorescence quenching effect is observed when the DQ™ OVA substrate remains intact, hydrolysis of DQ™ OVA into single dye-labeled peptides by proteases relieves this quenching, thereby producing brightly fluorescent products. […] Cells were then collected and fluorescence was monitored by flow cytometry.

CC(C)[C@H](NC(=O)[C@H](CCCCN)NC(=O)[C@H](CCCNC(=N)N)NC(=O)[C@H](CCCCN)NC(=O)[C@H](CCCCN)NC(=O)[C@H](CCCCN)NC(=O)[C@@H]1CCCN1C(=O)CNC(=O)[C@H](Cc1ccc(O)cc1)NC(=O)CNC(=O)[C@H](CS)NC(=O)CC[C@@H](C)[C@H]1CC[C@H]2[C@@H]3[C@H](O)C[C@@H]4C[C@H](O)CC[C@]4(C)[C@H]3C[C@H](O)[C@]12C)C(=O)NCC(=O)NCC(=O)O [CA-SV40] (Cholyl-CGYGPKKKRKVGG-OH)
cell death, conjugate alone ([1]; CA-SV40 NLS conjugate alone): 19%

cytochrome C
cell death, cytochrome C alone ([1]; recombinant cytochrome C alone): did not trigger cell death

B1: OVA: albumin from chicken egg white, unconjugated cargo/antigen (protein, UniProt P01012 2-386, looked up)
Ovalbumin: GSIGAASMEFCFDVFKELKVHHANENIFYCPIAIMSALAMVYLGAKDSTRTQINKVVRFDKLPGFGDSIEAQCGTSVNVHSSLRDILNQITKPNDVYSFSLASRLYAEERYPILPEYLQCVKELYRGGLEPINFQTAADQARELINSWVESQTNGIIRNVLQPSSVDSQTAMVLVNAIVFKGLWEKAFKDEDTQAMPFRVTEQESKPVQMMYQIGLFRVASMASEKMKILELPFASGTMSMLVLLPDEVSGLEQLESIINFEKLTEWTSSNVMEERKIKVYLPRMKMEEKYNLTSVLMAMGITDVFSSSANLSGISSAESLKISQAVHAAHAEINEAGREVVGSAEAGVDAASVSEEFRADHPFLFCIKHIATNAVLFFGRCVSP
eGFP-Gal3 marker pattern (endosomal membrane disruption) [2]: remained cytosolic; also recorded: diffuse cytosolic pattern | ITF spectral change after thermal stress (unfolding) [3]: complete denaturation | OVA cross presentation by WT MSCs (B3Z) [4]: poorly cross presented

B2: [CA-SV40]-DQ™ OVA: DQ OVA conjugated with a molar excess of CA-SV40 NLS steroid acid-peptide moieties (conjugate, UniProt P01012 2-386, looked up)
Ovalbumin: B1 Ovalbumin
modifications: DQ fluorophore label; CA-SV40 NLS conjugates
notes: DQ OVA conjugated with a molar excess of CA-SV40 NLS steroid acid-peptide moieties
DQ OVA fluorescence (intracellular degradation/processing) [5]: sharp increase

B3: DQ™ OVA: fluorogenic substrate DQ ovalbumin (protein, UniProt P01012 2-386, looked up)
Ovalbumin: B1 Ovalbumin
modifications: DQ fluorophore label
notes: fluorogenic substrate DQ ovalbumin
DQ OVA fluorescence (intracellular degradation/processing) [5]: not observed

B4: [CA-SV40]-OVA: OVA covalently conjugated to CA-SV40 NLS moieties via SM(PEG)4 cross-linker (conjugate, UniProt P01012 2-386, looked up)
Ovalbumin: B1 Ovalbumin
modifications: CA-SV40 NLS peptides via SM(PEG)4
notes: OVA covalently conjugated to CA-SV40 NLS moieties via SM(PEG)4 cross-linker
eGFP-Gal3 marker pattern (endosomal membrane disruption) [2]: became punctate; also recorded: punctate pattern

B5: 50×-cOVA: OVA conjugated with a 50× molar excess of CA-SV40 NLS, about eight moieties per OVA (conjugate, UniProt P01012 2-386, looked up)
Ovalbumin: B1 Ovalbumin
modifications: about eight CA-SV40 NLS conjugates
notes: OVA conjugated with a 50× molar excess of CA-SV40 NLS, about eight moieties per OVA
ITF spectral change after thermal stress (unfolding) [3]: partial reduction in peak intensity
